Measurements published in US20230312724A1 (KADMON, published 2023).

What was measured:
[1] = target: T1, mouse B7-H4 expressed on cells (mouse, UniProt Q7TSP5 25-257); experiment: flow cytometry, mB7-H4/CT26 cells
T1 construct: also called cellular mB7-H4; mB7-H4/CT26
T1 sequence: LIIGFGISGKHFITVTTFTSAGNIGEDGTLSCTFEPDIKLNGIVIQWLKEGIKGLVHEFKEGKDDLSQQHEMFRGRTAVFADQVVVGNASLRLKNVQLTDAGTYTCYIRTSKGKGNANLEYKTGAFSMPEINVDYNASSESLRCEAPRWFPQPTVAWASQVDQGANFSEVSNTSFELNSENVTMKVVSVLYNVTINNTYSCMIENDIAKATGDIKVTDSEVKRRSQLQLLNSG
Experimental: (§1) Cells were harvested, washed once, and then re-suspended to the concentration of 1×10⁶ cells/ml in ice cold FACS Buffer. 25 μl of cell suspension was added to each well of a 96-well round-bottom microliter plate. Serially diluted antibodies or fusion proteins were added to each well and incubated for 1 hour at 4° C. Cells were washed three times by centrifugation at 1500 rpm for 5 minutes, and then stained with secondary antibody (1:200 dilution) for 30 min at 4° C. in the dark. Cells were washed once, re-suspended in 100 μl PBS buffer and then analyzed using Guava Flow Cytometry EasyCyte system.

mouse B7-H4-Fc [2] = target: T2, mouse B7-H4-Fc (mouse; human); experiment: SPR (Biacore)
T2 construct: also called mB7-H4-Fc; mB7-H4-hFc

mouse B7-H4-his = target: T3, mouse B7-H4-his (mouse, UniProt Q7TSP5 25-257); experiment: SPR (Biacore)
T3 construct: also called mB7-H4-his; mB7-H4-His; not shown: his tag
T3 sequence: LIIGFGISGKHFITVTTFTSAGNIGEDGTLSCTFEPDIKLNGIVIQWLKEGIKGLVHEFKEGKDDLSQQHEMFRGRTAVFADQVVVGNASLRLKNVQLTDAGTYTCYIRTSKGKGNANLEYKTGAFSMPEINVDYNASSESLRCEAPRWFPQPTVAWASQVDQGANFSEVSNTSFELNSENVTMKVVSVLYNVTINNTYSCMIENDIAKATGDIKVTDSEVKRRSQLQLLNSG

[3] = target: T4, mB7-H4 (soluble mouse B7-H4, construct not named) (mouse, UniProt Q7TSP5 25-257, limits assumed); experiment: ELISA, mB7-H4
T4 sequence: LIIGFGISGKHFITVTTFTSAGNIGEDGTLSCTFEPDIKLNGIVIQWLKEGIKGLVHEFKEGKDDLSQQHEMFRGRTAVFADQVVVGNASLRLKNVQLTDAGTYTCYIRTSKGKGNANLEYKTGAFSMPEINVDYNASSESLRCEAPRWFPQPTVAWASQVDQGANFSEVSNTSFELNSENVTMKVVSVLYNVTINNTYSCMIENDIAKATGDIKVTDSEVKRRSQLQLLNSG
Experimental: (§2) About 1-2 μg/ml of human or mouse B7-H4-Fc (or his-tagged) was immobilized on ELISA plates (Immuno 2HB, Thermo scientific, cat #3455) at 4° C. overnight. After blocking the plates with 3% PBS+milk, serial diluted antibodies were added to the blocked plates and incubated at RT for 1-1.5 h. After washing the plates with PBS-T (0.05%), horse radish peroxidase (HRP)-conjugated antibody targeting the hFab was added to the plate. Signals were developed by adding 3,3′,5,5′-Tetramethylbenzidine (TMB (followed 1N of H₂SO₄ to stop the reaction. The OD at 450 nm was read by ELISA plate reader (Infinite M1000 from TECAN). GraphPad from Prism was used to plot OD450 vs. antibody concentration curve and to calculate the EC50 values.

human B7-H4-Fc = target: T5, human B7-H4-Fc (human); experiment: SPR (Biacore)
T5 construct: also called hB7-H4-Fc; hB7-H4 Fc
Experimental: (§3) Surface plasmon resonance experiments were performed using a Biacore T200 instrument equipped with CM5 sensor chips. The system was equilibrated in running buffer HBS-EP pH 7.4. The ligands were immobilized using amine-coupling chemistry. The surfaces of flow cells one through four were activated for 5 min using an amine coupling kit at a flow rate of […]. The ligands (human B7-H4-Fc, human B7-H4-hism and mouse B7-H4-Fc; at a concentration of 5 μg/ml in 10 mM sodium acetate, pH 5.0) were immobilized at a density of 50-100 RU on flow cell 2, 3, 4 respectively. Flow cell 1 was left blank to serve as a reference surface. All flow cell surfaces were blocked with a 5 min injection of 1 M ethanolamine, pH 8.0. To collect kinetic binding data, the respective analyte (diluted in 1×HBS-EP buffer, pH 7.4) was injected over the four flow cells at concentrations of 100 nM to 0.1 nM at a flow rate of […] and at a temperature of 25° C. The protein complex was allowed to associate and dissociate for 180 seconds and 1000 or 1200 seconds, respectively. The surfaces were regenerated with a 30 second injection of 1.5 M NaCl/0.05 M NaOH. The data were fit to a simple 1:1 interaction model using the Langmuir fit option available within the Biaevaluaton software
(§4) The kinetics for binding of the different antibodies to their targets were examined using Biacore analysis.

human B7-H4-his = target: T6, human B7-H4-his (human, UniProt Q7Z7D3 25-259); experiment: SPR (Biacore)
T6 construct: also called hB7-H4-his; hB7-H4 his; not shown: his tag
T6 sequence: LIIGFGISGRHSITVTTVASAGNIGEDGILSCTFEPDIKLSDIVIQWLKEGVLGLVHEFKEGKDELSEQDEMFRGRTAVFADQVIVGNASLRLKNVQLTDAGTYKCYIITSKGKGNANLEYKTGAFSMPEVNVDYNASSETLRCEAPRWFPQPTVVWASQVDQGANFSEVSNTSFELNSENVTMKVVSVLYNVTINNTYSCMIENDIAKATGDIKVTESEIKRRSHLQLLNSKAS
Experimental: as §3, §4

[4] = target: T7, hB7-H4 (soluble human B7-H4, construct not named) (human, UniProt Q7Z7D3 25-259, limits assumed); experiment: ELISA, hB7-H4
T7 construct: also called soluble hB7-H4
T7 sequence: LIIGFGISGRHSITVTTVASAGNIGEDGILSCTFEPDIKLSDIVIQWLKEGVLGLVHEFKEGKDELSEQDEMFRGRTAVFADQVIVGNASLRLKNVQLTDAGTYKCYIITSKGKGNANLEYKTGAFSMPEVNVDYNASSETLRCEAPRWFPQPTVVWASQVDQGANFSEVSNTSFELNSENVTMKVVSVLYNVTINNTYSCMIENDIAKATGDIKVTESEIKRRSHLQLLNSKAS
Experimental: as §2

[5] = target: T8, human B7-H4 expressed on cells (human, UniProt Q7Z7D3 25-282); experiment: flow cytometry, SK-BR-3 cells
T8 construct: Transfected CHO cells or tumor cell lines that carry hB7-H4; also called cellular hB7-H4
T8 sequence: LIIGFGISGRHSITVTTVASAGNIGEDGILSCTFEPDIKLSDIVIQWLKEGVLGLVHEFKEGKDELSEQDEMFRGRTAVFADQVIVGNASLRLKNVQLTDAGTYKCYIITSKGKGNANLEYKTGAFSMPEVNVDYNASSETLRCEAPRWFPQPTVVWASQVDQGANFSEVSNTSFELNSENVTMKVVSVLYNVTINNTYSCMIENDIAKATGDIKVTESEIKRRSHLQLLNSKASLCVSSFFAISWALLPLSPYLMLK
Experimental: as §1

[6] = target: T7, hB7-H4 (soluble human B7-H4, construct …); experiment: SPR (Biacore)
Experimental: as §3

[7] = target: T4, mB7-H4 (soluble mouse B7-H4, construct …); experiment: SPR (Biacore)
Experimental: as §3

mouse B7-H4-Fc [8] = target: T2, mouse B7-H4-Fc; experiment: ELISA, coated mB7-H4-Fc
Experimental: as §2

T2 sequence (chain, as listed by the source): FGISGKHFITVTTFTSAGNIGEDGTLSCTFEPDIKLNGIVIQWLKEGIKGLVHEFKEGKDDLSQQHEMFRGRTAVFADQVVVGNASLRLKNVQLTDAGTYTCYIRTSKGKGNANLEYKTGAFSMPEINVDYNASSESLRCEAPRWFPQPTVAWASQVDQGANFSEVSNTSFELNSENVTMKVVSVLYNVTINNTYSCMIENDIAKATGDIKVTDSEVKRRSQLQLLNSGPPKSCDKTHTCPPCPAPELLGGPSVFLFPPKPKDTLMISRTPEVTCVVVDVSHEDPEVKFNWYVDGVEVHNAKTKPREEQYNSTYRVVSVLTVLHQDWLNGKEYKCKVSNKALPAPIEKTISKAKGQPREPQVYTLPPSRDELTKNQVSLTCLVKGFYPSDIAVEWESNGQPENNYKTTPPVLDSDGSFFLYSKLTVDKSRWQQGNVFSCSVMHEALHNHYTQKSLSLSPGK
T5 sequence (chain, as listed by the source): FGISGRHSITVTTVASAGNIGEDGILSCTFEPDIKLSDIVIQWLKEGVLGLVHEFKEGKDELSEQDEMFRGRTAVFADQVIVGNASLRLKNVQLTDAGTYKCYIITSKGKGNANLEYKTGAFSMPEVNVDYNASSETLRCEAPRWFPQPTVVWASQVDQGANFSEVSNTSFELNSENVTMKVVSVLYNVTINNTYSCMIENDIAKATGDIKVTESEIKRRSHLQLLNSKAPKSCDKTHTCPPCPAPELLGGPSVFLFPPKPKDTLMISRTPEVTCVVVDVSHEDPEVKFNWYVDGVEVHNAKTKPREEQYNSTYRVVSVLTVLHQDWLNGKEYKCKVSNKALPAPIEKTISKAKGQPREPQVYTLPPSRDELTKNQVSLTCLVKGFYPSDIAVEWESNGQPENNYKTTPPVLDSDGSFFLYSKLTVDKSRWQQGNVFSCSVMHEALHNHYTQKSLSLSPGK

B1: 9D11/9D11 (antibody, human IgG1, V domains shown)
VH: QVQLVQSGAEVKKPGASVKVSCKASGYTFTSYGISWVRQAPGQGLEWVGVINPNGGTTTYAQTFQGRVTMTRDTSTSTVYMELSSLRSEDTAVYYCARTGYSSGWAFDYWGRGTLVTVSS
VL: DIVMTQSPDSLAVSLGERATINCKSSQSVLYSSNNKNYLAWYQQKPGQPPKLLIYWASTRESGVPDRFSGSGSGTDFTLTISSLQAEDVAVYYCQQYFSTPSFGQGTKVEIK
B1 gave an EC50 [1] of 122 nM, a Kd (mouse B7-H4-Fc [2]) of 0.642 nM and a Kd (mouse B7-H4-his) of 1.52 nM. The EC50 [3] was 0.104 nM, the Kd (human B7-H4-Fc) was 1.8 nM and the Kd (human B7-H4-his) was 0.85 nM. The EC50 [4] was 0.18 nM, the EC50 [5] was 126 nM and the Kd [6] was 5.97 nM. It also gave a Kd [7] of 4.78 nM.

B2: 9D11/67H9 (antibody, human IgG1, V domains shown)
VH: QVQLVQSGAEVKKPGASVKVSCKASGYTFTSYGISWVRQAPGQGLEWVGVINPNGGTTTYAQTFQGRVTMTRDTSTSTVYMELSSLRSEDTAVYYCARTGYSSGWAFDYWGRGTLVTVSS
VL: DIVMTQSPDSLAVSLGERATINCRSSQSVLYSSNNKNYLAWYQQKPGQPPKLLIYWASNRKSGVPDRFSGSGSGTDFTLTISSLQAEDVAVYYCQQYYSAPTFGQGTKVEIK
notes: 9D11 VH with 67H9 VL
B2 gave an EC50 [1] of 54.3 nM, an EC50 [3] of 0.105 nM and an EC50 [4] of 0.1 nM. The EC50 [5] was 24 nM, the Kd [6] was 7.09 nM and the Kd [7] was 6.08 nM.

B3: 9D11/67G3 (antibody, human IgG1, V domains shown)
VH: QVQLVQSGAEVKKPGASVKVSCKASGYTFTSYGISWVRQAPGQGLEWVGVINPNGGTTTYAQTFQGRVTMTRDTSTSTVYMELSSLRSEDTAVYYCARTGYSSGWAFDYWGRGTLVTVSS
VL: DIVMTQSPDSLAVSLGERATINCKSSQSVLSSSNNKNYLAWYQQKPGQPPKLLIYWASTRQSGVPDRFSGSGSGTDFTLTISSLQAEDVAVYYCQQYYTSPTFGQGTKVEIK
notes: 9D11 VH with 67G3 VL
For B3, the EC50 [1] was 45.3 nM, the EC50 [3] was 0.162 nM and the EC50 [4] was 0.261 nM. For the same binder, the EC50 [5] was 22.5 nM, the binding result (mouse B7-H4-Fc [8]) was “binds” and the Kd [6] was 10.6 nM. The Kd [7] was 8.46 nM.

B4: 9D11/67C6 (antibody, human IgG1, V domains shown)
VH: QVQLVQSGAEVKKPGASVKVSCKASGYTFTSYGISWVRQAPGQGLEWVGVINPNGGTTTYAQTFQGRVTMTRDTSTSTVYMELSSLRSEDTAVYYCARTGYSSGWAFDYWGRGTLVTVSS
VL: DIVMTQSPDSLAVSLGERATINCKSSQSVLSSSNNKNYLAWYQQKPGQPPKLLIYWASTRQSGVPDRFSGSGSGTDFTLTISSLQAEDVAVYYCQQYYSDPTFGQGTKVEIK
notes: 9D11 VH with 67C6 VL
For B4, the EC50 [1] was 45.7 nM, the EC50 [3] was 0.082 nM and the EC50 [4] was 0.115 nM. For the same binder, the EC50 [5] was 9.2 nM, the binding result (mouse B7-H4-Fc [8]) was “binds” and the Kd [6] was 15 nM. It also gave a Kd [7] of 2.8 nM.

B5: 24B6/24B6 (antibody, human IgG1, V domains shown)
VH: QVQLVQSGAEVKKPGASVKVSCKASGYTFTGYYMHWVRQAPGQGLEWIGWMNPNSGDTGYAQKFQGRVTMTRDTSTSTVYMELSSLRSEDTAVYYCAKVGAYGGMDVWGQGTTVTVSS
VL: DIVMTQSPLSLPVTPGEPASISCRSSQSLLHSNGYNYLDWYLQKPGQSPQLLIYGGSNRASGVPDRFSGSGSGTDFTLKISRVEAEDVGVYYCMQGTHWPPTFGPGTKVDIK
In the case of B5, the Kd (mouse B7-H4-his) is reported as 3.4 nM, the Kd (human B7-H4-his) is reported as 5.3 nM and the binding result (mouse B7-H4-Fc [8]) is reported as “binds”.
